Measured values taken from article PMC4219786, “Glycan Dependence of Galectin-3 Self-Association Properties” (PLoS ONE, 2014).

What was measured:
[1] = target: full length human Galectin-3 (1-250) (human) (UniProt P17931); assay: dynamic light scattering; after centrifugation and filtration; with 140 µM LNnT (CRD up to 1.2 mM LNnT); 41 µM CRD, 37 µM FL; 5 mM potassium phosphate pH 7.4; 25°C
[2] = target: full length human Galectin-3 (1-250) (human) (UniProt P17931); assay: dynamic light scattering; before filtration, after purification and freezing at -80°C; no glycan; 41 µM CRD, 37 µM FL; 5 mM potassium phosphate pH 7.4; 25°C
[3] = target: human Galectin-3 Carbohydrate Recognition Domain (114-250) (human) (UniProt P17931); assay: as above
Galectin-3 = target: T1, Galectin-3 (Homo sapiens, UniProt P17931); assay: SPR steady-state KD; 1H-15N HSQC NMR titration (slow exchange); assay type: binding
T1 construct: gene LGALS3; CRD domain (114–250), C-terminal 6His-tag
T1 sequence (P17931 114-250): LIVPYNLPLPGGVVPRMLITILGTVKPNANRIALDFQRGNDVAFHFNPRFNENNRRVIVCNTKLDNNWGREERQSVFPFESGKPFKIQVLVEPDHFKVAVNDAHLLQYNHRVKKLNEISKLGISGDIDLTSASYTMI

Work on “full length human Galectin-3 (1-250) (from UniProt P17931 1-250) (natural protein)” yielded a % mass of size <100 nm (46.73 nm), with 140 µM LNnT [1] of 8.7%, a % mass of size >100 nm, with 140 µM LNnT [1] of 91.3% and a % mass of size >100 nm [2] of 67%.
“human Galectin-3 Carbohydrate Recognition Domain (114-250) (from UniProt P17931 114-250) (domain or fragment)” showed a % mass of size >100 nm [3] of 0.7%.
For `CC(=O)N[C@H]1[C@H](O[C@H]2[C@@H](O)[C@@H](CO)O[C@@H](O[C@H]3[C@H](O)[C@@H](O)C(O)O[C@@H]3CO)[C@@H]2O)O[C@H](CO)[C@@H](O[C@@H]2O[C@H](CO)[C@H](O)[C@H](O)[C@H]2O)[C@@H]1O` (some centres unmarked) [LNnT, lacto-N-neoTetraose], the Kd (Galectin-3) was 140 ± 17 µM.
